Laboratory results taken from patent US20260201045A1.

Molecular target: full length human CNTFR (hCNTFR, amino acids 1-372, UniProtKB/Swiss-Prot Accession #P26992) (human) (UniProt P26992)
Experiment: cell-based or functional assay

Chain of full length human CNTFR (P26992 23-342 limits assumed, one chain of several): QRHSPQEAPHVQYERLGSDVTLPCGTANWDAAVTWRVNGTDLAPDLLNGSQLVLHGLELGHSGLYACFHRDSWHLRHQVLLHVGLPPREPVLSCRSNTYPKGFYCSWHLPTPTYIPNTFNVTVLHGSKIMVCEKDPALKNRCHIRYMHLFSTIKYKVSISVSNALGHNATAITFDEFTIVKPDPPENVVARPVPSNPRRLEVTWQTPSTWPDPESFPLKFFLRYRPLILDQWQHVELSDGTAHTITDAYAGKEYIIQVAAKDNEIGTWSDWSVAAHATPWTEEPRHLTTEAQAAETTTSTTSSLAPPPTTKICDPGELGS

| Ligand EC50 [M], activation of IMR-32/STAT3-luc cells (luciferase) | Substance |
| --- | --- |
| 9.63e-11 M | human Cytokine-like Factor 1/human Cardiotrophin-like cytokine complex (hCLF-1/CLC, R&D Systems 1151-CL) (from UniProt O75462 38-422; Q9UBD9 28-225) (ligand) |
| 2.26e-12 M | human Ciliary Neurotrophic Factor (hCNTF, R&D Systems, 257-NT) (from UniProt P26441 2-200) (ligand) |
